The source of these data is publication PMC12756002 (2025).

Sequences and labels used below:
B1: Sis1-WT [yeast] / Ssa1-WT [yeast] (parent complex)
chain 1: MVKETKLYDLLGVSPSANEQELKKGYRKAALKYHPDKPTGDTEKFKEISEAFEILNDPQKREIYDQYGLEAARSGGPSFGPGGPGGAGGAGGFPGGAGGFSGGHAFSNEDAFNIFSQFFGGSSPFGGADDSGFSFSSYPSGGGAGMGGMPGGMGGMHGGMGGMPGGFRSASSSPTYPEEETVQVNLPVSLEDLFVGKKKSFKIGRKGPHGASEKTQIDIQLKPGWKAGTKITYKNQGDYNPQTGRRKTLQFVIQEKSHPNFKRDGDDLIYTLPLSFKESLLGFSKTIQTIDGRTLPLSRVQPVQPSQTSTYPGQGMPTPKNPSQRGNLIVKYKVDYPISLNDAQKRAIDENF
chain 2: not shown
B2: Ssa1-WT [yeast] / Sis1-FLRnq1 complex (Sis1-WT premixed with denatured Rnq1) [yeast] (parent complex)
chain 1: not shown
chain 2: B1 chain 1
chain 3: MDTDKLISEAESHFSQGNHAEAVAKLTSAAQSNPNDEQMSTIESLIQKIAGYVMDNRSGGSDASQDRAAGGGSSFMNTLMADSKGSSQTQLGKLALLATVMTHSSNKGSSNRGFDVGTVMSMLSGSGGGSQSMGASGLAALASQFFKSGNNSQGQGQGQGQGQGQGQGQGQGSFTALASLASSFMNSNNNNQQGQNQSSGGSSFGALASMASSFMHSNNNQNSNNSQQGYNQSYQNGNQNSQGYNNQQYQGGNGGYQQQQGQSGGAFSSLASMAQSYLGGGQTQSNQQQYNQQGQNNQQQYQQQGQNYQHQQQGQQQQQGHSSSFSALASMASSYLGNNSNSNSSYGGQQQANEYGRPQQNGQQQSNEYGRPQYGGNQNSNGQHESFNFSGNFSQQNNNGNQNRY
B3: Sis1-WT [yeast] / full-length Rnq1 [yeast] (parent complex)
chain 1: B1 chain 1
chain 2: B2 chain 3

One assay covers variants of B1. In words: ELISA; Ssa1 (200 nM) immobilized; Sis1 at 20 nM; detection with αSis1 antibody; parent: 130; read off a plot. Background: In an ELISA, binding on a coated surface is turned into a signal by an enzyme label.
Consider chain 1 N56L, for which the response was roughly 75 Abs 450nm.

Consider chain 1 S49V, for which the response was roughly 82 Abs 450nm.

chain 1 E53A: the response was roughly 78 Abs 450nm.

Turning to chain 1 E53K, the response is roughly 97 Abs 450nm.

A further assay covers variants of B2. As to the kind of experiment: ELISA; Denatured Rnq1 premixed with Sis1 and immobilized; Ssa1-WT at 20 nM; detection with αSsa1 antibody; parent: 230; read off a plot.
For the variant chain 2 S49V, the response was roughly 170 Abs 450nm.

On to chain 2 N56L, for which the response was roughly 89 Abs 450nm.

Consider chain 2 E53K, for which the response is roughly 110 Abs 450nm.

For chain 2 E53A, the response is roughly 120 Abs 450nm.

In the next assay the parent is B3. In words: ELISA; 400 ng denatured FL Rnq1 immobilized; Sis1 at 20 nM; detection with Sis1-specific antibody; parent: 240; read off a plot.
In the case of chain 1 N56L, the response is roughly 60 Abs 450nm.

In the case of chain 1 S49V, the response was roughly 130 Abs 450nm.

With chain 1 E53A, the response is roughly 79 Abs 450nm.

With chain 1 E53K, the response is roughly 140 Abs 450nm.
